For one substance, percent cross-linked after 1 month results are on record in PMC4320835.

This assay deals with wild-type H3 A/Perth/16/2009 recombinant hemagglutinin (rHA) (influenza A virus, H3 A/Perth/16/2009). The assay is described as follows: cross-linking.

As for “wild-type H3 A/Perth/16/2009 recombinant hemagglutinin (rHA) (natural protein)”, the percent cross-linked after 1 month at 25°C was found to be 72%.
